Earlier results on ten molecules are cited in article PMC7395068, “The evolution of strategies to minimise the risk of human drug-induced liver injury (DILI) in drug discovery and development” (Archives of Toxicology, 2020).

B1: interferon gamma-1b (protein, UniProt P01579 24-161, looked up)
Interferon gamma: QDPYVKEAENLKKYFNAGHSDVADNGTLFLGILKNWKEESDRKIMQSQIVSFYFKLFKNFKDDQSIQKSVETIKEDMNVKFFNSNKKKRDDFEKLTNYSVTDLNVQRKAIHELIQVMAELSPAAKTGKRKRSQMLFRG
B2: pegvisomant (protein, UniProt P01241 27-217, looked up, variant H18D H21N Q22N F25S K41I Y42H L45W Q46W G120K R167N D171S E174S I179T)
Somatotropin: FPTIPLSRLFDNAMLRADRLNNLASDTYQEFEEAYIPKEQIHSFWWNPQTSLCFSESIPTPSNREETQQKSNLELLRISLLLIQSWLEPVQFLRSVFANSLVYGASDSNVYDLLKDLEEKIQTLMGRLEDGSPRTGQIFKQTYSKFDTNSHNDDALLKNYGLLYCFNKDMSKVSTFLRTVQCRSVEGSCGF
modifications: PEGylated
B3: idursulfase (protein, UniProt P22304 34-455; P22304 456-550, looked up)
Iduronate 2-sulfatase 42 kDa …: TDALNVLLIIVDDLRPSLGCYGDKLVRSPNIDQLASHSLLFQNAFAQQAVCAPSRVSFLTGRRPDTTRLYDFNSYWRVHAGNFSTIPQYFKENGYVTMSVGKVFHPGISSNHTDDSPYSWSFPPYHPSSEKYENTKTCRGPDGELHANLLCPVDVLDVPEGTLPDKQSTEQAIQLLEKMKTSASPFFLAVGYHKPHIPFRYPKEFQKLYPLENITLAPDPEVPDGLPPVAYNPWMDIRQREDVQALNISVPYGPIPVDFQRKIRQSYFASVSYLDTQVGRLLSALDDLQLANSTIIAFTSDHGWALGEHGEWAKYSNFDVATHVPLIFYVPGRTASLPEAGEKLFPYLDPFDSASQLMEPGRQSMDLVELVSLFPTLAGLAGLQVPPRCPVPSFHVELCREGKNLLKHFRFRDLEEDPYLPG
Iduronate 2-sulfatase 14 kDa …: NPRELIAYSQYPRPSDIPQWNSDKPSLKDIKIMGYSIRTIDYRYTVWVGFNPDEFLANFSDIHAGELYFVDSDPLQDHNMYNDSQGGDLFQLLMP
B4: tenecteplase (protein, UniProt P00750 36-562, looked up, variant T103N N117Q K296A H297A R298A R299A)
Tissue-type plasminogen …: SYQVICRDEKTQMIYQQHQSWLRPVLRSNRVEYCWCNSGRAQCHSVPVKSCSEPRCFNGGTCQQALYFSDFVCQCPEGFAGKCCEIDTRATCYEDQGISYRGNWSTAESGAECTNWQSSALAQKPYSGRRPDAIRLGLGNHNYCRNPDRDSKPWCYVFKAGKYSSEFCSTPACSEGNSDCYFGNGSAYRGTHSLTESGASCLPWNSMILIGKVYTAQNPSAQALGLGKHNYCRNPDGDAKPWCHVLKNRRLTWEYCDVPSCSTCGLRQYSQPQFRIKGGLFADIASHPWQAAIFAAAAASPGERFLCGGILISSCWILSAAHCFQERFPPHHLTVILGRTYRVVPGEEEQKFEVEKYIVHKEFDDDTYDNDIALLQLKSDSSRCAQESSVVRTVCLPPADLQLPDWTECELSGYGKHEALSPFYSERLKEAHVRLYPSSRCTSQHLLNRTVTDNMLCAGDTRSGGPQANLHDACQGDSGGPLVCLNDGRMTLVGIISWGLGCGQKDVPGVYTKVTNYLDWIRDNMRP
B5: pegaspargase (protein, UniProt P00805 23-348, looked up)
L-asparaginase 2: LPNITILATGGTIAGGGDSATKSNYTVGKVGVENLVNAVPQLKDIANVKGEQVVNIGSQDMNDNVWLTLAKKINTDCDKTDGFVITHGTDTMEETAYFLDLTVKCDKPVVMVGAMRPSTSMSADGPFNLYNAVVTAADKASANRGVLVVMNDTVLDGRDVTKTNTTDVATFKSVNYGPLGYIHNGKIDYQRTPARKHTSDTPFDVSKLNELPKVGIVYNYANASDLPAKALVDAGYDGIVSAGVGNGNLYKSVFDTLATAAKTGTAVVRSSRVPTGATTQDAEVDDAKYGFVASGTLNPQKARVLLQLALTQTKDPQQIQQIFNQY
modifications: PEG conjugate
B6: pegademase bovine (protein, UniProt P56658 2-363, looked up)
Adenosine deaminase: AQTPAFNKPKVELHVHLDGAIKPETILYYGRKRGIALPADTPEELQNIIGMDKPLSLPEFLAKFDYYMPAIAGCREAVKRIAYEFVEMKAKDGVVYVEVRYSPHLLANSKVEPIPWNQAEGDLTPDEVVSLVNQGLQEGERDFGVKVRSILCCMRHQPSWSSEVVELCKKYREQTVVAIDLAGDETIEGSSLFPGHVKAYAEAVKSGVHRTVHAGEVGSANVVKEAVDTLKTERLGHGYHTLEDATLYNRLRQENMHFEVCPWSSYLTGAWKPDTEHPVVRFKNDQVNYSLNTDDPLIFKSTLDTDYQMTKNEMGFTEEEFKRLNINAAKSSFLPEDEKKELLDLLYKAYGMPSPASAEQCL
modifications: PEG conjugate
B7: laronidase (protein, UniProt P35475 28-653, looked up)
Alpha-L-iduronidase: APHLVHVDAARALWPLRRFWRSTGFCPPLPHSQADQYVLSWDQQLNLAYVGAVPHRGIKQVRTHWLLELVTTRGSTGRGLSYNFTHLDGYLDLLRENQLLPGFELMGSASGHFTDFEDKQQVFEWKDLVSSLARRYIGRYGLAHVSKWNFETWNEPDHHDFDNVSMTMQGFLNYYDACSEGLRAASPALRLGGPGDSFHTPPRSPLSWGLLRHCHDGTNFFTGEAGVRLDYISLHRKGARSSISILEQEKVVAQQIRQLFPKFADTPIYNDEADPLVGWSLPQPWRADVTYAAMVVKVIAQHQNLLLANTTSAFPYALLSNDNAFLSYHPHPFAQRTLTARFQVNNTRPPHVQLLRKPVLTAMGLLALLDEEQLWAEVSQAGTVLDSNHTVGVLASAHRPQGPADAWRAAVLIYASDDTRAHPNRSVAVTLRLRGVPPGPGLVYVTRYLDNGLCSPDGEWRRLGRPVFPTAEQFRRMRAAEDPVAAAPRPLPAGGRLTLRPALRLPSLLLVHVCARPEKPPGQVTRLRALPLTQGQLVLVWSDEHVGSKCLWTYEIQFSQDGKAYTPVSRKPSTFNLFVFSPDTGAVSGSYRVRALDYWARPGPFSDPVPYLEVPVPRGPPSPGNP
B8: pegfilgrastim (protein, UniProt P09919 31-207, looked up)
Granulocyte …: TPLGPASSLPQSFLLKCLEQVRKIQGDGAALQEKLVSECATYKLCHPEELVLLGHSLGIPWAPLSSCPSQALQLAGCLSQLHSGLFLYQGLLQALEGISPELGPTLDTLQLDVADFATTIWQQMEELGMAPALQPTQGAMPAFASAFQRRAGGVLVASHLQSFLEVSYRVLRHLAQP
modifications: N-terminal Met; PEG
B9: imiglucerase (protein, UniProt P04062 40-536, looked up, variant R495H)
Lysosomal acid …: ARPCIPKSFGYSSVVCVCNATYCDSFDPPTFPALGTFSRYESTRSGRRMELSMGPIQANHTGTGLLLTLQPEQKFQKVKGFGGAMTDAAALNILALSPPAQNLLLKSYFSEEGIGYNIIRVPMASCDFSIRTYTYADTPDDFQLHNFSLPEEDTKLKIPLIHRALQLAQRPVSLLASPWTSPTWLKTNGAVNGKGSLKGQPGDIYHQTWARYFVKFLDAYAEHKLQFWAVTAENEPSAGLLSGYPFQCLGFTPEHQRDFIARDLGPTLANSTHHNVRLLMLDDQRLLLPHWAKVVLTDPEAAKYVHGIAVHWYLDFLAPAKATLGETHRLFPNTMLFASEACVGSKFWEQSVRLGSWDRGMQYSHSIITNLLYHVVGWTDWNLALNPEGGPNWVRNFVDSPIIVDITKDTFYKQPMFYHLGHFSKFIPEGSQRVGLVASQKNDLDAVALMHPDGSAVVVVLNRSSKDVPLTIKDPAVGFLETISPGYSIHTYLWHRQ
B10: rasburicase (protein, UniProt Q00511 2-302, looked up)
Uricase: SAVKAARYGKDNVRVYKVHKDEKTGVQTVYEMTVCVLLEGEIETSYTKADNSVIVATDSIKNTIYITAKQNPVTPPELFGSILGTHFIEKYNHIHAAHVNIVCHRWTRMDIDGKPHPHSFIRDSEEKRNVQVDVVEGKGIDIKSSLSGLTVLKSTNSQFWGFLRDEYTTLKETWDRILSTDVDATWQWKNFSGLQEVRSHVPKFDATWATAREVTLKTFAEDNSASVQATMYKMAEQILARQQLIETVEYSLPNKHYFEIDLSWHKGLQNTGKNAEVFAPQSDPNGLIKCTVGRSSLKSKL

The conditions of this data set: in vivo.
For B1, the “DILI +VE (5-8), DILI -VE (-4)” value is reported as “-VE” and the DILI severity category result is given as “Ambiguous DILI-concern”.
As to B2, the “DILI +VE (5-8), DILI -VE (-4)” value was “-VE” and the DILI severity category result was “Ambiguous DILI-concern”.
Consider B3, for which the “DILI +VE (5-8), DILI -VE (-4)” value was “-VE” and the DILI severity category entry is on record as “vNo-DILI-Concern”.
For the molecule B4, the “DILI +VE (5-8), DILI -VE (-4)” value was “-VE” and the DILI severity category entry is “vNo-DILI-Concern”.
With B5, the “DILI +VE (5-8), DILI -VE (-4)” value is reported as “+VE” and the DILI severity category entry is “vLess-DILI-Concern”.
On to B6, for which the “DILI +VE (5-8), DILI -VE (-4)” value was “-VE” and the DILI severity category result is listed as “vNo-DILI-Concern”.
Consider B7, for which the “DILI +VE (5-8), DILI -VE (-4)” value is “-VE” and the DILI severity category entry was “Ambiguous DILI-concern”.
As for B8, the “DILI +VE (5-8), DILI -VE (-4)” value is “-VE” and the DILI severity category result is reported as “vNo-DILI-Concern”.
Take B9: the “DILI +VE (5-8), DILI -VE (-4)” value is “-VE” and the DILI severity category result is “vNo-DILI-Concern”.
Regarding B10, the “DILI +VE (5-8), DILI -VE (-4)” value was “-VE” and the DILI severity category result is “vNo-DILI-Concern”.
